From the nanobody polyreactivity screen of Harvey et al. (2022)

Test: yeast display, Sf9 membrane polyspecificity reagent, FACS + sequencing; frameworks hold sequencing errors
Method in brief: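 A nanobody's polyreactivity label depends on the gate it was sorted from. Yeast display cells were stained with 10% biotinylated, detergent-solubilized Sf9 membrane reagent for 1 hour at 4 °C, enriched on streptavidin microbeads and sorted by FACS. The low and high (top ~1%) gates were set on anti-HA fluorescence for expression and streptavidin fluorescence for reagent binding.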

Sequence | polyreactivity (PSR sort gate)
QVQLVESGGGLVQAGGSLRLSCAASGSIFGAYTMGGYRQAPGKERELVAAITWSGGCTYYADSVKGRFTISRDNAKNTVYLQMNSLKPEDTAVYYCAAVFLRARYKYNYWGQGTQVTVSS | high polyreactivity
QVQLVESGGGLVQAGGSLRLSCAASGSIFDYNAMGWYRQAPGKEREFVAAISSSAGSTYYADSVKGRFTISRDNAKNTVYLEMNSLKPEDTAVYYCAADWYDFSFPYYEYEYWGQGTQVTVSS | low polyreactivity
QVQIVESGGGIVQAGGSLRLSCAASGIIFSGYVMGWYRQAPGKERQLVAAISSGGSKYYADSVKGRFTISRDNAKNTFYLQINSLKPEDTEVYYCAAAGYWTLGYGYWGQGTQVTVSS | low polyreactivity
QVQLVESGGGLVQAGGSLRLSCAASGRIFGRNAMGWYRQAPGKERELVAAISSSGGRTYYADSVKGRFTISRDNAKNTVYLQMNSLKPEDTAVYYCAAVGSLYYYRYDYWGQGTQVTVSS | high polyreactivity
QVQLVESGGGLVQAGGSLRLSCAASGSIFFWYTMGWYREAPGKERELVATITGSGSSTTYADSVKGRFTISRDNAKNTVYLQMNSLKPEDTAVYYCAAADIIDHSFPYDYWGQGTQVTVSS | low polyreactivity
QVQLVESGGGLVQAGGSLRLSCAASGRIFWANAMGWYRQAPGKERELVAAISYSGVSTYYADSVKGRFTISRDNAKNTVYLQMNSLIPEDTAVYYCAADRYRKYYYWGQGTQVTVSS | high polyreactivity
QVQLVESGGGLVQAGGSLRLSCAASGSTFGFYAMGWYTHAPGKERELVAGITRVGSTNYADSVKGRFTISRDNAKNTVYLQMNSLKPEVTAVYYCNRRYTPYTWPYGYWGQGTQVTVSS | high polyreactivity
QVQLGESRGGLVQAVGSLSLSCAAYGFTYDKNAMGWYIQAPGNESALDAAINIRSTYYAESVKGRFTISRDNAKNTVYLQMNSMKPEDTAVYYCANEVPSGYWFNYYYWGQGTQVTVSS | low polyreactivity
QVQLVESGGGLVQAGGSLRLSCAASGSIFVYNDMGWYRQAPGKERELVAGIDWSGDRTYADSVKGRFTSSRDNAKNTVYLHMNSLKPEDTAVYYCNADEWRWDEIIPYAVDYWGQGTQVTVSS | low polyreactivity
QVQLVESGGGLVQAGGSLRLSCAASGSTFDSNAMGWYRQAPGKERELVAAIRFSGGSTNYADSVKGRFTISRDKAKNTVYLQINSLKPEDTAVYYCAARYPNLRSRWYYYWGQGPQVTVSS | high polyreactivity
QVQLVESAAGLVLAGGSLRLSCAASGSIFRFYAMGWSRQAPGQERELVAGITLSGASTYYADSVKGRFTISRDNAKNTVYLQMNSLKPEDTAVYYCAKRYRLDGFYYWGQGTQVTVSS | high polyreactivity
QVQLVESGGGLVQAGGSLRLSCAASGSTFNSYAMGWYRQAPGKEWELVAAITSSVGSTYYADSVKGRFTISRDNAKNTVYLQMNSLKPEDTAVYYCAADYFSFWYFSGYDYWGQGTQVTVSS | low polyreactivity
QVQLVESGGGLVQAGGTLRLSCAASGPILSRNAMAWYRQAPGKERELVAAISRSGGSTYYADSVKGRFTISRDNAKNTVYFQMNSLKPEDTAVYYSATRYMGRLDYWGQGTQVTVSS | high polyreactivity
QVQLVESGGGLVQAGGSLRLSCAASGFTFRYYTMGWYRQAPGKERELVAAITSSGGNTYYADSVKGRFTISRDNAKYTVYLQMNSLKPEDTAVYYCAADGRYYAVFRYDYWGQGTQVTVSS | low polyreactivity
QVQLVESGGGLVQAGGSLRLSCAASGRTFRRTAMGWYRQAPGKERELVAAISSRGGSTYYADSVKWRFTISRDNAKNTVYLQMNSLKPEDTAVYYCNRVLTPIWYYVPLYSQPTYYYWGQGTQVTVSS | high polyreactivity
QVQLVESGGALVQAGGSLRLSCAASGITFAYYAMGWYRQAPRKERELVASIRTGGSTYYADSVKGRFTISRDNAKNTVYLQMNSLKPEYTAVYYCARRYRTPYDYWGQGTQVTVSS | high polyreactivity
QVELVESGGGLVQAGGSLRLSCAASGSTFYYNAMGWYRQGPGTERELVAASTFTGGSTYADSVKGRFTISRDNAKNTVYLQMTSLKPEDTAVYYCAATIQRHDYLGTGYDYWGQGTQVTVSS | low polyreactivity
QVQLVESGGGLVQAGGSLRLSCAASGSTFVAYPMGWYRQAPGKERELVATISSGGNTKYADSVKGRFTISRDNAKNTVYLQMNSVKPEDTAVYYCNAGRYRYRYRSYPYDYWGQGTQVTVSS | high polyreactivity
QVQRVESGGGLVQAGGSLRLSCAASGRTFRSYAMGWYRQAPGKERQFVAAISRSGASTRYADSVKGRFTISRDNAKNTVYFQMNSLKPEDTAVYYCAAVWPDVRGYDYWGQGTQVTVSS | high polyreactivity
QVQLVESGGGLVQAGGSLRLSCAASGSIFLYNAMGWYRQAPGKERELVAAISKSGGSTYYADSVKGRFTISRDNAKNTVYLQMNSLKPEDTAVYYCAAGYGRRIRYGSEYDYWGQGTLVTVSS | low polyreactivity
QVQLVESGGGLVQAGGSLRLSCAASGRTLIYNAMGWYRQAPGKERELVAAITGGGGRTYYADSVKGRFTISRDNAQNTVYLQMNSLKPEDTAVYYCAAGETFEMNYWGQGTQVTVSS | low polyreactivity
QVQLVESGGGLVQAGGSLRLSCAASGSIFSYYAMGWYRQAPGKERELVAAITVRGGSTYYADSVKGRFTISRDNAKNTVYLQMNSLKPEDTGVYYCAADWLDESFSYGPYYYWGQGTQVTVSS | low polyreactivity

Sequence | polyreactivity (PSR sort gate)
QVQLVESGGGLVQAGGSLRLSCAASGFIFNHYAMAWYRQAPGKEREFVAAISWSGGSTYYADSVNGRFTISLDNAKNTVYLQMNSLKPEDTAVYYCGASYNGLWHGDYDYWGQGTQVTVSS | low polyreactivity
QVQLVQTGGGVVQAGGSLRLSCAASGRIFNSYPMGWYRQAPGKERELVASINRYGGSTYYADSVKGRFTISRDNAKNTVYLQMYSLNPEDTSVYYCAARGYTSFNTGYGYWGQGTQVSVSS | high polyreactivity
QVQLVESGGGLVQAGGSLRLSCAASGRIFIAYMGWYRQAPGKERELVAAIDSGASTYYADSVKGRFTISRDNAKNTVYLQMNSLKPEDTAVYYCAADVVYDYGGMDYWGQGTQVTVSS | low polyreactivity
QVQLVESGGGLVQAGGSLRLSCAASGRTFIANAMGWYRQAPGKERELVAVITLNGGSTYYADSVKGRFTISRDNAKNTVYLQMNSLKPEDTAVYYCAAGRYYKLRATHGYWGQGTQVTVSS | low polyreactivity
QVQLVESGGGLVQAGGSLRLSCAASGRIFRYYAMGWYRQAPGKERELVAAITRGGRTNYADSVKGRFTISRDNAKNTVYLQMNSLKQEDTAFYYCAARNVFQSVHVRGGYWGQGTQVTVSS | high polyreactivity
QVQLVESGGGLVQAGGSLRLSCAASGITFRNYAMGWYRQAPGKERELVAAITTSGSRTYYADSVKGRFTISRDNAKNTVYLQMNSLKPEDTAVYYCAAEKAPWQYYDFEYWGQGTQVTVSS | high polyreactivity
QVQLVESGGGLVQAGGSLRLSCAACGTIFRRYATGSYRQAPGKERELVAAISSGGSTYADSVKGRFTISRDNAKNTVYFQMNSLKPEDTAVYYCAAYYQLGRHPGTPNGYDYWGHGTQVTVSS | low polyreactivity
QVQLQESGGCLVLAGGSLRLSCAASGYIFDTCPMGWYRQAPGKEREFVASIDHGSNTYYADSVKGRFTISRDSAKNTVYLQMNSLKPEDTAVYYCAVRDDGSYTYGNWGQGTQVTVSS | high polyreactivity
QVQLVESGGGLVQAGASLRLSCSPSGRTFYYYAMGWYRPAPGKEREWVAAISQSGGSTYYADSVKGRFTISRDNAKKTVFLQMNSLKPEDTAVYYCKAYYGFGHRIYDFWGQGTQVTVSS | high polyreactivity
QVQLVESGGGLVQAGGSLRLSCAASGSIFWVYAMGWYRQAPGKEREFVAAITYSGGSTYYADSVKGRFTISRDNAKNTVYLQMNSLKPEDTAVYYCAADYDYDYGSRYYYWGQGTQVTVSS | low polyreactivity
QVQLVESGGGLVQAGCSLRVSSAASGRIFVYYAMGRYRQAPGKERELVAAIRWTGGSTYYADSVKGRFTISRDNAKNTVYLQMNSVKPEDTAVYYCATVNRYCHFNYWGQGTQVTVSS | high polyreactivity
QVQLVESAGGLVQEGGSLRLICAASGSIFEPYAMGWYRQAPGKERELVAAIRWSGGSTYYADSVKGRFTISRDNAKNTVYLQMNRLIPEDTAVYYCAKYFPAGYYYWGQGTQVTVSS | low polyreactivity
QVQLQDSGGGLVQAGGSLRLSCAASGSISIYGYMGWYRQAPGNERELVAAITAGGSTYYADSVKGRFTISRDNAKNTVYLLMKSLKPEDTAVYYCAPYEQRVYDLHYWGQGTQVTVSS | high polyreactivity
QVQLVESGGGLVQAGGSLRLSCAASGFTFVPYAMGWYRQAPGKERELVAAISGSGGSTYYADSVKGRFTISRDNAKNTVYLQMNSLKPEDTAVYYCNADRRWAYYWGQGTQVTVSS | high polyreactivity
QVQLQESGGGLVQAGGSLRLSCAASGYISHADEMGWYRQAPGKEHELVASISNGGSTNYADSVKGRFTISRDNAKNTVYQQMNSLKSEYTAVYYCAALTGQVDIHYYWCQGTQVTVSS | low polyreactivity
QVPLVESGGGLVQAGGSLRLSCAASGSTQNRYAMGWYRQAPGKEREFVAAITWRGGSTYADSVKGRFTISRDNAKTTVYLQMYSLKPEDTAVYYCAAQGYKQRVHYDYWGQGNQVTVSS | high polyreactivity
QVQLVESGGGLVQAGGSLSLSCAASGSIFGRNTMGWYRQAPGKERELVAAITLRGGSTYYADSVKGRFTISRDNAKKTVYLQMNSLKPEDTSDYYCATDGWKQSAYDYWGQGTQVTVSS | low polyreactivity
QVQLVESGGGLVQAGGSLRLSCAASGSIYGYAMGWYRQAPGKERELVAAISGRGGRTYYADSVKGRFTISRDNAKNTVYLQMNSLKPEDTAVYYCNVQWRYPYHYTVDYWGQGTQVTVSS | high polyreactivity
QVQLVESGGGLVQAGGSLRLSCAPSGFIFTLYAMGWYRQAPGKERELVASISSGGSTNYADSVKGRFTISRDNAKNTVYLQMHSLKPEATAVYYCDAYYYSKSDRFSGRYGRYYWGQVTQVTVSS | high polyreactivity
QVQLVESGGGLVQAGCSLRLSCAASGFTFYQNVMGWYRQAPGKERELVASINRRGGSTYYADSVKGRFTISRDNAMNTVYLQKNSLKPEDTAVYYCAARTYRFYTRQLDYWGQGTQVTVSS | high polyreactivity
QVQLVESGGGLVQAGGSLRLSCAASGSTFSLYGMGWYRQAPGKERELVAAIRRSGGRTYYADSVKGRFTISRDNAKNTVYLQMNSLKPEDTAVYYCAKSVPRYYSKSGLAYEFDYWGQGTQVTVSS | low polyreactivity
